We go through 2 molecules from article PMC8961561, “PEPscan: A Broad Spectrum Approach for the Characterization of Protein-Binder Interactions?” (Biomolecules, 2022).

For one assay, the target named is T1, TIMP-1 (UniProt P01033 24-207).
T1 construct: TIMP-1, UniProt P01033, full size 207
Kind of assay: peptide or protein array; PEPscan: overlapping dodecapeptides (two amino acid shift) spanning the complete sequence of one partner on a cellulose membrane; saturated with 3% non-fat dry milk/3% BSA; incubated with the purified protein partner (4 mg/mL, 4 °C, overnight); antibody against that protein, HRP-conjugated secondary antibody, ECL. Conditions: both partners purified.

For assay [1], the target named is T2, SLAM-Associated Protein (SAP) (UniProt O60880 1-128).
T2 construct: SAP, UniProt O60880, full size 128
T2 sequence (looked up): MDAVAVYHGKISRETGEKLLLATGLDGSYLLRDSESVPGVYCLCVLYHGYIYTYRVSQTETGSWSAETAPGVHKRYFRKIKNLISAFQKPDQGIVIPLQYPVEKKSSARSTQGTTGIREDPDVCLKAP
The assay is described as above. Conditions: both partners purified.

T1 sequence (P01033 24-207): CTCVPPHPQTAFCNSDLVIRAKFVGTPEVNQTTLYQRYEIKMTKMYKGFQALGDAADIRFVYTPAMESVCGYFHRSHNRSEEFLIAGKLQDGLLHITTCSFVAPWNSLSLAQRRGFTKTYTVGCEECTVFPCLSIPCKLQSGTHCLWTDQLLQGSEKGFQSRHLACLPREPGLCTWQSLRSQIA

B1: MMP1 fragment FREYNLHRVAAHELGHSL (peptide)
peptide: FREYNLHRVAAHELGHSL
notes: stretch of MMP-1; union of positive overlapping dodecapeptide spots 4:11–14; also called MMP1 4:11–14; source: spot synthesis on cellulose membrane
As to B1, in the assay with TIMP-1, the binding result is listed as “binds”.

B2: Fyn fragment ALYDYEARTEDDLSFH (peptide)
peptide: ALYDYEARTEDDLSFH
notes: stretch of Fyn; union of positive overlapping dodecapeptide spots 2:14–16; also called FSYN-SH3 2:14–16; source: spot synthesis on cellulose membrane
Consider B2, for which the binding result in assay [1] was “binds”.
